The values that follow come from the supplement of paper PMC9233669.

Data set [1] deals with biotinyl-Trp-oxazolone. The experiment in a line: self-aminoacylation, catalytic enhancement (BWO) (fold over background); higher = more active; k-Seq, kA / k0A0; sequences stand for … in GGGAAUGGAUCCACAUCUACGAAUUC…UUCACUGCAGACUUGACGAAGCUG
The essentials: (§1)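 The uncatalyzed rate is the low-activity peak of a bimodal Gaussian fit, and catalytic enhancement is median kA divided by it. The kA values came from pseudo-first-order fits, with 1000 bootstraps, of per-sequence fraction reacted measured by streptavidin capture, triplicate qPCR and Illumina sequencing. Mutagenized RNA pools with a 21-nt variable region (0.43 μM) were reacted with each biotinyl-aminoacyl-oxazolone at 2–1250 μM in 50 μL HEPES/NaCl/KCl/MgCl2/CaCl2 buffer with 5% acetonitrile, pH 6.9–7.0, for 90 minutes at room temperature.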

Data set [2] concerns biotinyl-Phe-oxazolone. The experiment in a line: self-aminoacylation, catalytic enhancement (BFO) (fold over background); higher = more active; k-Seq, kA / k0A0; sequences stand for … in GGGAAUGGAUCCACAUCUACGAAUUC…UUCACUGCAGACUUGACGAAGCUG
The essentials: as §1

In data set [3] the test system is biotinyl-Leu-oxazolone. The data set can be described thus: self-aminoacylation, catalytic enhancement (BLO) (fold over background); higher = more active; k-Seq, kA / k0A0; sequences stand for … in GGGAAUGGAUCCACAUCUACGAAUUC…UUCACUGCAGACUUGACGAAGCUG
The essentials:
as §1

Data set [4] concerns biotinyl-Met-oxazolone. The data set can be described thus: self-aminoacylation, catalytic enhancement (BMO) (fold over background); higher = more active; k-Seq, kA / k0A0; sequences stand for … in GGGAAUGGAUCCACAUCUACGAAUUC…UUCACUGCAGACUUGACGAAGCUG
The essentials: as §1

Data set [5] has as its system biotinyl-Val-oxazolone. The data set can be described thus: self-aminoacylation, catalytic enhancement (BVO) (fold over background); higher = more active; k-Seq, kA / k0A0; sequences stand for … in GGGAAUGGAUCCACAUCUACGAAUUC…UUCACUGCAGACUUGACGAAGCUG
The essentials:
as §1

Data set [6] deals with biotinyl-Ile-oxazolone. The experiment in a line: self-aminoacylation, catalytic enhancement (BIO) (fold over background); higher = more active; k-Seq, kA / k0A0; sequences stand for … in GGGAAUGGAUCCACAUCUACGAAUUC…UUCACUGCAGACUUGACGAAGCUG
The essentials:
as §1

Variants at the floor of the assay were thinned out.

Consider “AUUACCCUUGUCAUGGAGUGA [Fam2.1 aminoacylation ribozyme variant]”, for which the self-aminoacylation in data set [1] was determined as 5.67; in data set [2] it was 22.1; in data set [3] it was 5.03; in data set [4], 4.62; in data set [5] it was 2.76; in data set [6], 2.87.

On to “AUUACCCUUGUCCUCGAGUGA [Fam2.1 aminoacylation ribozyme variant]”, for which the self-aminoacylation in data set [1] amounted to 5.17; in data set [2], 32.2; in data set [3], 4.77; in data set [4], 4.9; in data set [5], 3.08; in data set [6], 2.68.

On to “AUUACCCUUGUCGUCGAGUGA [Fam2.1 aminoacylation ribozyme variant]”, for which the self-aminoacylation in data set [1] was determined as 0.966; in data set [2], 2.62; in data set [3], 1.05; in data set [4], 1.06; in data set [5], 1.11; in data set [6], 1.13.

For “AUUACCCUUGUCUUCGAGUGA [Fam2.1 aminoacylation ribozyme variant]”, the self-aminoacylation is 6.14 in data set [1]; 18.9 in data set [2]; 4.49 in data set [3]; 4.46 in data set [4]; 2.73 in data set [5]; 2.64 in data set [6].

For “AUUACCCUUGUGAUCGAGUGA [Fam2.1 aminoacylation ribozyme variant]”, the self-aminoacylation in data set [1] was found to be 9.16; in data set [2] it was 50.1; in data set [3] it was 7.77; in data set [4] it was 7.15; in data set [5], 3.53; in data set [6], 3.2.

Take “AUUACCCUUUUCAUCGAGUGA [Fam2.1 aminoacylation ribozyme variant]”: the self-aminoacylation turned out to be 7.27 in data set [1]; 25.2 in data set [2]; 6.32 in data set [3]; 6.39 in data set [4]; 3.68 in data set [5]; 2.88 in data set [6].

As to “AUUACCGUGGUCAGCGAGUGA [Fam2.1 aminoacylation ribozyme variant]”, the self-aminoacylation in data set [1] came out at 6.24; in data set [2], 19.3; in data set [3] it was 4.64; in data set [4], 4.54; in data set [5], 3.1; in data set [6] it was 3.02.

For the sequence “AUUACCGUGGUCGUCGAGUGA [Fam2.1 aminoacylation ribozyme variant]”, the self-aminoacylation turned out to be 0.591 in data set [1]; 2.81 in data set [2]; 1.18 in data set [3]; 1.09 in data set [4]; 1.06 in data set [5]; 1.2 in data set [6].

For “AUUACCGUGUUCAUCGAGUGA [Fam2.1 aminoacylation ribozyme variant]”, the self-aminoacylation in data set [1] was determined as 8.08; in data set [2], 20.2; in data set [3], 6.23; in data set [4] it was 6.78; in data set [5], 3.92; in data set [6] it was 3.72.

For “AUUACCUAGGUCAUCGAGUGA [Fam2.1 aminoacylation ribozyme variant]”, the self-aminoacylation stood at 7.91 in data set [1]; 6.96 in data set [2]; 7.92 in data set [3]; 6.35 in data set [4]; 4.01 in data set [5]; 4.2 in data set [6].

On to “AUUACCUCGGUCAUCGAGUGA [Fam2.1 aminoacylation ribozyme variant]”, for which the self-aminoacylation in data set [1] was determined as 6.06; in data set [2], 20.8; in data set [3], 5.32; in data set [4] it was 5.12; in data set [5] it was 2.87; in data set [6] it was 2.82.

As to “AUUACCUGGGUCAUCGAGUGA [Fam2.1 aminoacylation ribozyme variant]”, the self-aminoacylation came out at 5.91 in data set [1]; 5.6 in data set [2]; 4.74 in data set [3]; 5.07 in data set [4]; 3.05 in data set [5]; 2.83 in data set [6].

“AUUACCUUGGCCAUCGAGUGA [Fam2.1 aminoacylation ribozyme variant]”: the self-aminoacylation in data set [1] was 3.26; in data set [2], 2.01; in data set [3], 2.5; in data set [4], 2.38; in data set [5], 1.62; in data set [6], 1.95.

Turning to “AUUACCUUGGUCAUCCAGUGA [Fam2.1 aminoacylation ribozyme variant]”, the self-aminoacylation in data set [1] is 5.48; in data set [2], 22.5; in data set [3] it was 4.83; in data set [4], 4.51; in data set [5] it was 2.84; in data set [6], 3.16.

Consider “AUUACCUUGGUCAUCGAAUGA [Fam2.1 aminoacylation ribozyme variant]”, for which the self-aminoacylation amounted to 0.837 in data set [1]; 0.902 in data set [2]; 1.1 in data set [3]; 0.77 in data set [4]; 0.945 in data set [5]; 1.14 in data set [6].

As for “AUUACCUUGGUCAUCGAGCGA [Fam2.1 aminoacylation ribozyme variant]”, the self-aminoacylation in data set [1] was 1.57; in data set [2] it was 1.02; in data set [3], 1.74; in data set [4], 1.5; in data set [5] it was 1.83; in data set [6], 1.55.

Turning to “AUUACCUUGGUCAUCUAGUGA [Fam2.1 aminoacylation ribozyme variant]”, the self-aminoacylation in data set [1] was determined as 11.2; in data set [2], 47.8; in data set [3] it was 8.77; in data set [4], 9.34; in data set [5], 4.72; in data set [6] it was 4.49.

For the sequence “AUUACCUUGGUCAUGGAGUGA [Fam2.1 aminoacylation ribozyme variant]”, the self-aminoacylation in data set [1] amounted to 5.57; in data set [2], 4.26; in data set [3], 4.42; in data set [4] it was 4.16; in data set [5] it was 2.72; in data set [6], 2.97.

For the sequence “AUUACCUUUGUCAUCGAGUGA [Fam2.1 aminoacylation ribozyme variant]”, the self-aminoacylation in data set [1] is 6.87; in data set [2], 20; in data set [3], 6.05; in data set [4], 5.22; in data set [5] it was 3.06; in data set [6], 3.25.

Consider “AUUACGCCGGUCAUCGAGUGA [Fam2.1 aminoacylation ribozyme variant]”, for which the self-aminoacylation in data set [1] came out at 8.28; in data set [2] it was 81.9; in data set [3] it was 7.93; in data set [4], 7.36; in data set [5], 4.89; in data set [6], 3.94.

For the sequence “AUUACGCUGGGCAUCGAGUGA [Fam2.1 aminoacylation ribozyme variant]”, the self-aminoacylation in data set [1] is 6.96; in data set [2] it was 43.1; in data set [3] it was 7.76; in data set [4], 7.19; in data set [5] it was 4; in data set [6] it was 3.69.

In the case of “AUUACGCUGGUCACCGAGUGA [Fam2.1 aminoacylation ribozyme variant]”, the self-aminoacylation in data set [1] was 7.92; in data set [2] it was 47.5; in data set [3] it was 7.46; in data set [4], 6.73; in data set [5] it was 4.31; in data set [6], 3.71.

As for “AUUACGCUGGUCAUCGAGUGU [Fam2.1 aminoacylation ribozyme variant]”, the self-aminoacylation in data set [1] was 3.22; in data set [2], 2.57; in data set [3] it was 2.9; in data set [4], 2.96; in data set [5], 2.64; in data set [6] it was 2.34.

As to “AUUACGCUGGUCAUCGCGUGA [Fam2.1 aminoacylation ribozyme variant]”, the self-aminoacylation was found to be 15.4 in data set [1]; 134 in data set [2]; 11.7 in data set [3]; 12.2 in data set [4]; 9.87 in data set [5]; 7.32 in data set [6].

For the sequence “AUUACGCUGGUCAUCUAGUGA [Fam2.1 aminoacylation ribozyme variant]”, the self-aminoacylation in data set [1] was found to be 6.02; in data set [2], 27.3; in data set [3] it was 5.42; in data set [4] it was 4.83; in data set [5] it was 2.89; in data set [6], 3.21.
